In US5766897A, “Cysteine-pegylated proteins” (Incyte Pharmaceuticals, Inc., priority 1995, dated 1998):
Substitutions are numbered along the chain they refer to. Names and notes keep the numbering of the source.

B1: PN-1 produced in insect cells: glycosylated PN-1 produced in insect cells using a baculovirus expression system (protein, UniProt P07093 20-398, looked up)
Glia-derived nexin: SHFNPLSLEELGSNTGIQVFNQIVKSRPHDNIVISPHGIASVLGMLQLGADGRTKKQLAMVMRYGVNGVGKILKKINKAIVSKKNKDIVTVANAVFVKNASEIEVPFVTRNKDVFQCEVRNVNFEDPASACDSINAWVKNETRDMIDNLLSPDLIDGVLTRLVLVNAVYFKGLWKSRFQPENTKKRTFVAADGKSYQVPMLAQLSVFRCGSTSAPNDLWYNFIELPYHGESISMLIALPTESSTPLSAIIPHISTKTIDSWMSIMVPKRVQVILPKFTAVAQTDLKEPLKVLGITDMFDSSKANFAKITTGSENLHVSHILQKAKIEVSEDGTKASAATTAILIARSSPPWFIVDRPFLFFIRHNPTGAVLFMGQINKP
modifications: insect cell glycosylated
notes: glycosylated PN-1 produced in insect cells using a baculovirus expression system
B2: S1C (conjugate, UniProt P07093 20-398, looked up, variant S1C)
Glia-derived nexin: B1 Glia-derived nexin with S1C
modifications: PEG
B3: G52C (conjugate, UniProt P07093 20-398, looked up, variant G52C)
Glia-derived nexin: B1 Glia-derived nexin with G52C
modifications: PEG
B4: E230C (conjugate, UniProt P07093 20-398, looked up, variant E230C)
Glia-derived nexin: B1 Glia-derived nexin with E230C
modifications: PEG
B5: C117S;C131S;C209S (protein, UniProt P07093 20-398, looked up, variant C117S C131S C209S)
Glia-derived nexin: B1 Glia-derived nexin with C117S, C131S, C209S
B6: D147C (conjugate, UniProt P07093 20-398, looked up, variant D147C)
Glia-derived nexin: B1 Glia-derived nexin with D147C
modifications: PEG
B7: R63C (conjugate, UniProt P07093 20-398, looked up, variant R63C)
Glia-derived nexin: B1 Glia-derived nexin with R63C
modifications: PEG
B8: S263C (conjugate, UniProt P07093 20-398, looked up, variant S263C)
Glia-derived nexin: B1 Glia-derived nexin with S263C
modifications: PEG
B9: N99C (conjugate, UniProt P07093 20-398, looked up, variant N99C)
Glia-derived nexin: B1 Glia-derived nexin with N99C
modifications: PEG
B10: D192C (conjugate, UniProt P07093 20-398, looked up, variant D192C)
Glia-derived nexin: B1 Glia-derived nexin with D192C
modifications: PEG
B11: H252C (conjugate, UniProt P07093 20-398, looked up, variant H252C)
Glia-derived nexin: B1 Glia-derived nexin with H252C
modifications: PEG
B12: N85C (conjugate, UniProt P07093 20-398, looked up, variant N85C)
Glia-derived nexin: B1 Glia-derived nexin with N85C
modifications: PEG
B13: E125C (conjugate, UniProt P07093 20-398, looked up, variant E125C)
Glia-derived nexin: B1 Glia-derived nexin with E125C
modifications: PEG
B14: N304C (conjugate, UniProt P07093 20-398, looked up, variant N304C)
Glia-derived nexin: B1 Glia-derived nexin with N304C
modifications: PEG

Biological target: Thrombin (Homo sapiens, UniProt P00734)
Assay: thrombin inhibition activity assay (D.4), specific activity
Format: biochemical
Details: for ACTIVITY, AFTER PEG MODIFICATION: after cysteine-PEGylation with Maleimido-PEG; for REL TO WT, BEFORE PEG MODIFICATION: activity relative to wild type PN-1; for REL TO ACTIVITY BEFORE PEG, AFTER PEG MODIFICATION: cysteine-PEGylated protein relative to same protein before PEGylation; for REL TO WT, AFTER PEG MODIFICATION: cysteine-PEGylated protein relative to wild type PN-1
Method: Refolded or soluble protein was tested for capacity to inhibit thrombin in a standard assay. Briefly, serial 2-fold dilutions of PN-1 variant were added to microtiter plate wells (50 μl/well), followed by 50 μl of a 30 μg/ml heparin solution, followed by 1 NIH unit of thrombin in 50 μl. These were allowed to incubate at 25° C. for 15 minutes. Residual thrombin activity was measured by the addition of 50 μl S-2238 (Kabi Pharmaceuticals) at 0.625 mg/ml. PN-1 variants were tested for their ability to inhibit urokinase using the substrate S-2444, plasmin using the substrate S-2390, tPA using the substrate S2288, Factor Xa using the substrate S-2222 or S-2765, kallikrein using the substrate S-2302, human neutrophil elastase using s-AAPV-pna (Sigma), cathepsin G using s-AAPF-pna (Sigma) in a similar manner, with or without the addition of heparin.
Each of the PN-1 site-directed mutant proteins, as well as wild type PN-1, were modified by cysteine-PEGylation using the protocol described in F.2. The activity of wild type PN-1, each of the PN-1 site-directed mutants, and the cysteine-PEGylated wild type and mutant proteins was determined using the assay described in D.4.

Molecule | specific activity vs thrombin and association kinetics, including rate enhancement effect of heparin (compared with authentic PN-1) | ACTIVITY, AFTER PEG MODIFICATION | SPECIFIC ACTIVITY, BEFORE PEG MODIFICATION | REL TO WT, BEFORE PEG MODIFICATION | REL TO ACTIVITY BEFORE PEG, AFTER PEG MODIFICATION | REL TO WT, AFTER PEG MODIFICATION
B1 | indistinguishable from authentic PN-1 |  |  |  |  | 
B2 |  | 0.25 NIH units of thrombin inhibited per μg PN1 (variant) | 0.10 NIH units of thrombin inhibited per μg PN1 (variant) | 0.20 | 2.5 | 0.50
B3 |  | 0.05 NIH units of thrombin inhibited per μg PN1 (variant) | 0.024 NIH units of thrombin inhibited per μg PN1 (variant) | 0.048 | 2.1 | 0.1
B4 |  | 0.20 NIH units of thrombin inhibited per μg PN1 (variant) | 0.071 NIH units of thrombin inhibited per μg PN1 (variant) | 0.14 | 2.8 | 0.40
B5 |  | 0.50 NIH units of thrombin inhibited per μg PN1 (variant) | 0.050 NIH units of thrombin inhibited per μg PN1 (variant) |  |  | 
B6 |  | 0.125 NIH units of thrombin inhibited per μg PN1 (variant) | 0.063 NIH units of thrombin inhibited per μg PN1 (variant) | 0.125 | 2 | 0.25
B7 |  | 0.125 NIH units of thrombin inhibited per μg PN1 (variant) | 0.050 NIH units of thrombin inhibited per μg PN1 (variant) | 0.10 | 2.5 | 0.25
B8 |  | 0.093 NIH units of thrombin inhibited per μg PN1 (variant) | 0.05 NIH units of thrombin inhibited per μg PN1 (variant) | 0.1 | 1.86 | 0.19
B9 |  | 0.50 NIH units of thrombin inhibited per μg PN1 (variant) | 0.20 NIH units of thrombin inhibited per μg PN1 (variant) | 0.40 | 2.5 | 1.0
B10 |  | 0.91 NIH units of thrombin inhibited per μg PN1 (variant) | 0.045 NIH units of thrombin inhibited per μg PN1 (variant) | 0.091 | 2 | 0.18
B11 |  | 0.25 NIH units of thrombin inhibited per μg PN1 (variant) | 0.10 NIH units of thrombin inhibited per μg PN1 (variant) | 0.20 | 2.5 | 0.50
B12 |  | 0.040 NIH units of thrombin inhibited per μg PN1 (variant) | 0.033 NIH units of thrombin inhibited per μg PN1 (variant) | 0.066 | 1.2 | 0.080
B13 |  | 0.15 NIH units of thrombin inhibited per μg PN1 (variant) | 0.095 NIH units of thrombin inhibited per μg PN1 (variant) | 0.19 | 1.57 | 0.3
B14 |  | 0.17 NIH units of thrombin inhibited per μg PN1 (variant) | 0.056 NIH units of thrombin inhibited per μg PN1 (variant) | 0.11 | 3 | 0.33
